# According to paper PMC12177037 (Communications Biology, 2025):
# Biological target: T1, lysozyme (Gallus gallus (Chicken)., UniProt P00698)
# T1 construct: lysozyme, ~15 kDa on SDS-PAGE
# Assay: pull-down; FLAG-tagged quenchbody from the crude IVTT mixture bound to anti-FLAG magnetic agarose beads, combined with 100 uL of 1 uM MBP or 10 uM lysozyme, 30 min, room temperature, 1200 rpm; 6 washes with PBS; eluted with 3x FLAG peptide; reducing SDS-PAGE; semi-quantitative comparison with the wild type
# Conditions: one partner purified
# T1 sequence (P00698 19-147): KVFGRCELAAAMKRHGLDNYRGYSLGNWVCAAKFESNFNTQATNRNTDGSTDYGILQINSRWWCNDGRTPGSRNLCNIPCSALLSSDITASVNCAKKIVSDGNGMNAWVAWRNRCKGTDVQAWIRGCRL
row,Binder,binding result
1,"lysozyme quenchbody (Qb-Lys) Y104W (VHH, as the VHH of m2 (nanobody chain of PDB 1ZVH in the cassette) with the stated change; source: NEBExpress cell-free E. coli protein synthesis (IVTT); not shown: Cys-tag, N-terminal, kept) VHH: DVQLVESGGGSVQAGGSLRLSCAASGYIASINYLGWFRQAPGKEREGVAAVSPAGGTPYYADSVKGRFTVSLDNAENTVYLQMNSLKPEDTALYYCAAARQGWWIPLNSYGYNYWGQGTQVTVSS",binds
2,"lysozyme quenchbody (Qb-Lys) Y104W/Y110W (VHH, as the VHH of m2 (nanobody chain of PDB 1ZVH in the cassette) with the stated changes; Member of the 'single, pairwise, and triple Y27W, Y104W and Y110W mutants'; the combination is counted out from that phrase; also called pairwise mutant Y104W, Y110W; source: NEBExpress cell-free E. coli protein synthesis (IVTT); not shown: Cys-tag, N-terminal, kept) VHH: DVQLVESGGGSVQAGGSLRLSCAASGYIASINYLGWFRQAPGKEREGVAAVSPAGGTPYYADSVKGRFTVSLDNAENTVYLQMNSLKPEDTALYYCAAARQGWWIPLNSWGYNYWGQGTQVTVSS",binds
3,"lysozyme quenchbody (Qb-Lys) Y27W/Y110W (VHH, as the VHH of m2 (nanobody chain of PDB 1ZVH in the cassette) with the stated changes; Member of the 'single, pairwise, and triple Y27W, Y104W and Y110W mutants'; the combination is counted out from that phrase; also called pairwise mutant Y27W, Y110W; source: NEBExpress cell-free E. coli protein synthesis (IVTT); not shown: Cys-tag, N-terminal, kept) VHH: DVQLVESGGGSVQAGGSLRLSCAASGWIASINYLGWFRQAPGKEREGVAAVSPAGGTPYYADSVKGRFTVSLDNAENTVYLQMNSLKPEDTALYYCAAARQGWYIPLNSWGYNYWGQGTQVTVSS",binds
4,"lysozyme quenchbody (Qb-Lys) Y27W (VHH, as the VHH of m2 (nanobody chain of PDB 1ZVH in the cassette) with the stated change; source: NEBExpress cell-free E. coli protein synthesis (IVTT); not shown: Cys-tag, N-terminal, kept) VHH: DVQLVESGGGSVQAGGSLRLSCAASGWIASINYLGWFRQAPGKEREGVAAVSPAGGTPYYADSVKGRFTVSLDNAENTVYLQMNSLKPEDTALYYCAAARQGWYIPLNSYGYNYWGQGTQVTVSS",binds
5,"lysozyme quenchbody (Qb-Lys) W103Y (VHH, as the VHH of m2 (nanobody chain of PDB 1ZVH in the cassette) with the stated change; source: NEBExpress cell-free E. coli protein synthesis (IVTT); not shown: Cys-tag, N-terminal, kept) VHH: DVQLVESGGGSVQAGGSLRLSCAASGYIASINYLGWFRQAPGKEREGVAAVSPAGGTPYYADSVKGRFTVSLDNAENTVYLQMNSLKPEDTALYYCAAARQGYYIPLNSYGYNYWGQGTQVTVSS",binds

# Now from value to binder:
row,binding result,Binder
1,binds,"lysozyme quenchbody (Qb-Lys) Y27W/Y104W (VHH, as the VHH of m2 (nanobody chain of PDB 1ZVH in the cassette) with the stated changes; Member of the 'single, pairwise, and triple Y27W, Y104W and Y110W mutants'; the combination is counted out from that phrase; also called pairwise mutant Y27W, Y104W; source: NEBExpress cell-free E. coli protein synthesis (IVTT); captured on anti-FLAG magnetic beads from the crude IVTT mixture (pull-down)) VHH: DVQLVESGGGSVQAGGSLRLSCAASGWIASINYLGWFRQAPGKEREGVAAVSPAGGTPYYADSVKGRFTVSLDNAENTVYLQMNSLKPEDTALYYCAAARQGWWIPLNSYGYNYWGQGTQVTVSS"
2,binds,"lysozyme quenchbody (Qb-Lys) Y27W/Y104W/Y110W (VHH, as the VHH of m2 (nanobody chain of PDB 1ZVH in the cassette) with the stated changes; also called triple mutant Y27W, Y104W, Y110W; source: NEBExpress cell-free E. coli protein synthesis (IVTT); captured on anti-FLAG magnetic beads from the crude IVTT mixture (pull-down)) VHH: DVQLVESGGGSVQAGGSLRLSCAASGWIASINYLGWFRQAPGKEREGVAAVSPAGGTPYYADSVKGRFTVSLDNAENTVYLQMNSLKPEDTALYYCAAARQGWWIPLNSWGYNYWGQGTQVTVSS"

# Biological target: T1, lysozyme
# Assay: fluorescence intensity plate assay at one antigen concentration (fold-sense); 20 nM TAMRA-labelled quenchbody variants in PBS/0.05% Tween-20 with and without antigen (500 nM lysozyme or MBP in Fig. 3B and 3E; concentration not stated for Fig. 3C and 3F); fold-sense = fluorescence with antigen relative to 0 nM antigen
# Conditions: both partners purified
row,fold-sense (fluorescence with antigen relative to without),Binder
1,1.3 fold,"lysozyme-binding quenchbody (Qb-Lys), wild type (VHH, the labelled, eluted form stood in the fluorescence assays; also called lysozyme quenchbody; source: NEBExpress cell-free E. coli protein synthesis (IVTT); not shown: Cys-tag, N-terminal, kept) VHH: DVQLVESGGGSVQAGGSLRLSCAASGYIASINYLGWFRQAPGKEREGVAAVSPAGGTPYYADSVKGRFTVSLDNAENTVYLQMNSLKPEDTALYYCAAARQGWYIPLNSYGYNYWGQGTQVTVSS"
2,1.7 fold,"lysozyme quenchbody (Qb-Lys) Y110W (VHH, as the VHH of m2 (nanobody chain of PDB 1ZVH in the cassette) with the stated change; source: NEBExpress cell-free E. coli protein synthesis (IVTT); not shown: Cys-tag, N-terminal, kept) VHH: DVQLVESGGGSVQAGGSLRLSCAASGYIASINYLGWFRQAPGKEREGVAAVSPAGGTPYYADSVKGRFTVSLDNAENTVYLQMNSLKPEDTALYYCAAARQGWYIPLNSWGYNYWGQGTQVTVSS"

# Biological target: T1, lysozyme
# Assay: other fluorescence titration; 20 nM TAMRA-labelled quenchbody in PBS/0.05% Tween-20 with 1-8000 nM antigen, 1 h at room temperature (legend: 60 min, 25 °C), 384-well plate, excitation 535 ± 20 nm, emission 585 ± 30 nm; fit to single site-specific binding with Hill slope; EC50 as a proxy for KD
# Conditions: both partners purified
row,EC50,Binder
1,7 nM,"lysozyme-binding quenchbody (Qb-Lys), wild type (VHH, the labelled, eluted form stood in the fluorescence assays; also called lysozyme quenchbody; source: NEBExpress cell-free E. coli protein synthesis (IVTT); not shown: Cys-tag, N-terminal, kept) VHH: DVQLVESGGGSVQAGGSLRLSCAASGYIASINYLGWFRQAPGKEREGVAAVSPAGGTPYYADSVKGRFTVSLDNAENTVYLQMNSLKPEDTALYYCAAARQGWYIPLNSYGYNYWGQGTQVTVSS"
